Laboratory results published in patent US20130315910A1 (Xencor, published 2013).

T1: human FcγRIIb receptor protein (R&D Systems) (human, UniProt P31994 46-217)
T1 construct: Bought protein injected over captured antibody in Biacore; also called CD32b
T1 sequence (looked up): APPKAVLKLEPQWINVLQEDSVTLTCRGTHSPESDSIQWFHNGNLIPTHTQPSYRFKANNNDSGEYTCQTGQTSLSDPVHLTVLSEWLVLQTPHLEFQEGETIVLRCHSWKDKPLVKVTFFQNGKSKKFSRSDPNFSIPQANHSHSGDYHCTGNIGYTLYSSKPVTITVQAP

T2: human FcγRIIa (131R), His- and GST-tagged (human, UniProt P12318 34-217)
T2 construct: Expressed in HEK293T cells, purified by nickel chromatography; also called R131 FcγRIIa; not shown: 6xHis and GST tags of the pTT5 vector
T2 sequence (looked up): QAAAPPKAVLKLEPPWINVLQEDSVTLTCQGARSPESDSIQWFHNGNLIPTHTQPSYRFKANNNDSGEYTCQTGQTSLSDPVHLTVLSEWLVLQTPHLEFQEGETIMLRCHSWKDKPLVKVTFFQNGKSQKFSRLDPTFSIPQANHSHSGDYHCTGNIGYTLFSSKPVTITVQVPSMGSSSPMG

T3: human FcγRIIa (131H), His- and GST-tagged (human, UniProt P12318 34-217)
T3 construct: also called H131 FcγRIIa; HIIa; not shown: 6xHis and GST tags of the pTT5 vector
T3 sequence (looked up): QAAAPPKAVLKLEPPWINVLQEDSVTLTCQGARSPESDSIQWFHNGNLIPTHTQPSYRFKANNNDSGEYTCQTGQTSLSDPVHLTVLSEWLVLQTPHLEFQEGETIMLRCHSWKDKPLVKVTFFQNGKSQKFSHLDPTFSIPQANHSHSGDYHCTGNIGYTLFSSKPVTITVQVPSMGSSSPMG

T4: mFcγRIIb (Mus musculus, UniProt P08101)
T4 construct: extracellular region, C-terminal His- and GST-tag; also called mouse FcγRII
T4 sequence (receptor extracellular region, looked up): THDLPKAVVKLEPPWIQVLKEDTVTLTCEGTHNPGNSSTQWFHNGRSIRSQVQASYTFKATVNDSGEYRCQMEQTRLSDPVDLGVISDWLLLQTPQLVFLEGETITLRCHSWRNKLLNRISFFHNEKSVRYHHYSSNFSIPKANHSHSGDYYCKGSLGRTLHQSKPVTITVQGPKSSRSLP

T5: mFcγRIV
T5 construct: also called mouse FcγRIV; not shown: C-terminal His and GST tags (named only on our card)
T5 chain: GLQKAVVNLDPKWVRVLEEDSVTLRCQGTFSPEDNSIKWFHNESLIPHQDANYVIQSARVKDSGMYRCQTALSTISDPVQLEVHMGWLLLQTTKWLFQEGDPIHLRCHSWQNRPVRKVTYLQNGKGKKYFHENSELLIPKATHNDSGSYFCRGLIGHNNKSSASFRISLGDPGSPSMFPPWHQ

T6: cynoFcγRIIb (Macaca fascicularis, UniProt A0A140HDP4)
T6 construct: extracellular region, C-terminal His- and GST-tag; also called cynomolgus monkey FcγRIIb
T6 sequence (receptor extracellular region): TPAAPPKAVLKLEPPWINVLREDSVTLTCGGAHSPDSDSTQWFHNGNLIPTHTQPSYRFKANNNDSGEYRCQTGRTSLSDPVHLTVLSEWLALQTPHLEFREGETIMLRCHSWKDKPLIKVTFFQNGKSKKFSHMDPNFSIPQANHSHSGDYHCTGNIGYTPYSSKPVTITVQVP


Legend:
Experiment in all cases: SPR
[1] = molecular target: T1, human FcγRIIb receptor protein (R&D …)
[2] = molecular target: T7, human FcγRI receptor protein (R&D Systems) (human, UniProt P12314 16-288)
T7 construct: also called soluble FcγRI; solFcγRI

[3] = molecular target: T2, human FcγRIIa (131R), His- and …
[4] = molecular target: T3, human FcγRIIa (131H), His- and …
[5] = molecular target: T8, human FcγRIIIa (158V), His- and GST-tagged (human, UniProt P08637 17-208)
T8 construct: also called V158 FcγRIIIa; VIIIa; not shown: 6xHis and GST tags of the pTT5 vector

mFcγRIIb = molecular target: T4, mFcγRIIb
mFcγRIV = molecular target: T5, mFcγRIV
cynoFcγRIIb = molecular target: T6, cynoFcγRIIb
cynoFcγRIIIa = molecular target: T9, cynoFcγRIIIa (Macaca fascicularis, UniProt Q8SPW2)
T9 construct: extracellular region, C-terminal His- and GST-tag; also called cynomolgus monkey FcγRIIIa
T9 sequence (Q8SPW2 17-208): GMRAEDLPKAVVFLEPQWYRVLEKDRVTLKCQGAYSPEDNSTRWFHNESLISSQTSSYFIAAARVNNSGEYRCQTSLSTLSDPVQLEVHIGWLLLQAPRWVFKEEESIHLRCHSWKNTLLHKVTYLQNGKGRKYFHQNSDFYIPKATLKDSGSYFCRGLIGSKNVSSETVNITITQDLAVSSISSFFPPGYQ

T8 sequence (P08637 17-208 F176V): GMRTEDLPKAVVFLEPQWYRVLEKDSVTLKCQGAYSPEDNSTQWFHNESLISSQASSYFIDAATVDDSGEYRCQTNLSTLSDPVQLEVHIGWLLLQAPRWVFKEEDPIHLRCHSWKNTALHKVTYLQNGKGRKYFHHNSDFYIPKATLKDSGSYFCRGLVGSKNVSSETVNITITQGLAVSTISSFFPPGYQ
T7 sequence (P12314 16-288 limits assumed): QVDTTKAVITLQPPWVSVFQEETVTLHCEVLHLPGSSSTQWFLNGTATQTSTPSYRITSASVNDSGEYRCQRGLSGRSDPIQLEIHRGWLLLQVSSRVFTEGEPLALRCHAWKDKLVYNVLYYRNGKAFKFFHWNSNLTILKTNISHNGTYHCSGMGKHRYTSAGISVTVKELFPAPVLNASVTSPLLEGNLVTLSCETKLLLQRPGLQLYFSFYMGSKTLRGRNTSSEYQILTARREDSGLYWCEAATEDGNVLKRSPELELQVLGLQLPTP

Fold vs WT IgG1 [1] | Kd [1] | Fold vs WT IgG1 [2] | Kd [2] | Fold vs WT IgG1 [3] | Kd [3] | Fold vs WT IgG1 [4] | Kd [4] | Fold vs WT IgG1 [5] | Kd [5] | Fold vs WT IgG1 (Kd) (mFcγRIIb) | Fold vs WT IgG1 (off-rate) (mFcγRIIb) | Fold vs WT IgG1 (Kd) (mFcγRIV) | Fold vs WT IgG1 (off-rate) (mFcγRIV) | Fold vs WT IgG1 (Kd) (cynoFcγRIIb) | Fold vs WT IgG1 (off-rate) (cynoFcγRIIb) | Fold vs WT IgG1 (Kd) (cynoFcγRIIIa) | Fold vs WT IgG1 (off-rate) (cynoFcγRIIIa) | binding result [1] | binding result [3] | Binder
1.33 fold | 1100 nM | 2.06 fold | 0.16 nM | 1.6 fold | 536 nM | 0.733 fold | 882 nM | 0.398 fold | 481 nM | 1.86 fold | 4.1 fold | 0.315 fold | 0.876 fold | 1.16 fold | 1.15 fold | 0.783 fold | 0.515 fold |  |  | A327D (antibody, human IgG1, kappa, HuAM4G7 anti-CD19 IgG1 (m1) with this Fc substitution, EU index; copies: 2 + 2) heavy: not shown light: DIVMTQSPATLSLSPGERATLSCRSSKSLQNVNGNTYLYWFQQKPGQSPQLLIYRMSNLNSGVPDRFSGSGSGTEFTLTISSLEPEDFAVYYCMQHLEYPITFGAGTKLEIKRTVAAPSVFIFPPSDEQLKSGTASVVCLLNNFYPREAKVQWKVDNALQSGNSQESVTEQDSKDSTYSLSSTLTLSKADYEKHKVYACEVTHQGLSSPVTKSFNRGEC
1.45 fold | 1010 nM |  |  | 0.867 fold | 990 nM |  |  |  |  |  | 0.61 fold |  | 1.07 fold |  | 0.66 fold |  | 1.15 fold |  |  | S239N (antibody, human IgG1, kappa, HuAM4G7 anti-CD19 IgG1 (m1) with this Fc substitution, EU index; copies: 2 + 2) heavy: not shown light: DIVMTQSPATLSLSPGERATLSCRSSKSLQNVNGNTYLYWFQQKPGQSPQLLIYRMSNLNSGVPDRFSGSGSGTEFTLTISSLEPEDFAVYYCMQHLEYPITFGAGTKLEIKRTVAAPSVFIFPPSDEQLKSGTASVVCLLNNFYPREAKVQWKVDNALQSGNSQESVTEQDSKDSTYSLSSTLTLSKADYEKHKVYACEVTHQGLSSPVTKSFNRGEC
 |  |  |  | 1.58 fold | 544 nM |  |  |  |  |  | 0.877 fold |  | 1.08 fold |  | 0.864 fold |  | 0.983 fold | no binding |  | H268Q (antibody, human IgG1, kappa, HuAM4G7 anti-CD19 IgG1 (m1) with this Fc substitution, EU index; copies: 2 + 2) heavy: not shown light: DIVMTQSPATLSLSPGERATLSCRSSKSLQNVNGNTYLYWFQQKPGQSPQLLIYRMSNLNSGVPDRFSGSGSGTEFTLTISSLEPEDFAVYYCMQHLEYPITFGAGTKLEIKRTVAAPSVFIFPPSDEQLKSGTASVVCLLNNFYPREAKVQWKVDNALQSGNSQESVTEQDSKDSTYSLSSTLTLSKADYEKHKVYACEVTHQGLSSPVTKSFNRGEC
2.62 fold | 560 nM | 2.74 fold | 0.12 nM | 3.19 fold | 269 nM | 1.43 fold | 453 nM | 2.19 fold | 87.5 nM |  | 2.44 fold |  | 1.42 fold |  | 2.23 fold |  | 1.51 fold |  |  | H268E (antibody, human IgG1, kappa, HuAM4G7 anti-CD19 IgG1 (m1) with this Fc substitution, EU index; copies: 2 + 2) heavy: not shown light: DIVMTQSPATLSLSPGERATLSCRSSKSLQNVNGNTYLYWFQQKPGQSPQLLIYRMSNLNSGVPDRFSGSGSGTEFTLTISSLEPEDFAVYYCMQHLEYPITFGAGTKLEIKRTVAAPSVFIFPPSDEQLKSGTASVVCLLNNFYPREAKVQWKVDNALQSGNSQESVTEQDSKDSTYSLSSTLTLSKADYEKHKVYACEVTHQGLSSPVTKSFNRGEC
 |  |  |  |  |  |  |  |  |  |  | 1.42 fold |  | 1.19 fold |  | 0.826 fold |  | 0.979 fold | no binding | no binding | V266I (antibody, human IgG1, kappa, HuAM4G7 anti-CD19 IgG1 (m1) with this Fc substitution, EU index; copies: 2 + 2) heavy: not shown light: DIVMTQSPATLSLSPGERATLSCRSSKSLQNVNGNTYLYWFQQKPGQSPQLLIYRMSNLNSGVPDRFSGSGSGTEFTLTISSLEPEDFAVYYCMQHLEYPITFGAGTKLEIKRTVAAPSVFIFPPSDEQLKSGTASVVCLLNNFYPREAKVQWKVDNALQSGNSQESVTEQDSKDSTYSLSSTLTLSKADYEKHKVYACEVTHQGLSSPVTKSFNRGEC
53.4 fold | 27.5 nM |  |  | 74 fold | 11.6 nM |  |  |  |  |  | 2.1 fold |  | 0.588 fold |  | 0.831 fold |  | 0.437 fold |  |  | S267E/L328I (antibody, human IgG1, kappa, HuAM4G7 anti-CD19 IgG1 (m1) with these Fc substitutions, EU index; copies: 2 + 2) heavy: not shown light: DIVMTQSPATLSLSPGERATLSCRSSKSLQNVNGNTYLYWFQQKPGQSPQLLIYRMSNLNSGVPDRFSGSGSGTEFTLTISSLEPEDFAVYYCMQHLEYPITFGAGTKLEIKRTVAAPSVFIFPPSDEQLKSGTASVVCLLNNFYPREAKVQWKVDNALQSGNSQESVTEQDSKDSTYSLSSTLTLSKADYEKHKVYACEVTHQGLSSPVTKSFNRGEC
3.06 fold | 480 nM | 2.35 fold | 0.14 nM | 4.19 fold | 205 nM | 1.89 fold | 342 nM | 3.08 fold | 62.2 nM | 1.11 fold | 2.63 fold | 0.47 fold | 1.45 fold | 1.48 fold | 3.94 fold | 4.24 fold | 1.65 fold |  |  | H268D (antibody, human IgG1, kappa, HuAM4G7 anti-CD19 IgG1 (m1) with this Fc substitution, EU index; copies: 2 + 2) heavy: not shown light: DIVMTQSPATLSLSPGERATLSCRSSKSLQNVNGNTYLYWFQQKPGQSPQLLIYRMSNLNSGVPDRFSGSGSGTEFTLTISSLEPEDFAVYYCMQHLEYPITFGAGTKLEIKRTVAAPSVFIFPPSDEQLKSGTASVVCLLNNFYPREAKVQWKVDNALQSGNSQESVTEQDSKDSTYSLSSTLTLSKADYEKHKVYACEVTHQGLSSPVTKSFNRGEC
 |  |  |  |  |  |  |  |  |  |  | 1.41 fold |  | 0.291 fold |  | 0.714 fold |  | 0.271 fold | no binding | no binding | S298Q (antibody, human IgG1, kappa, HuAM4G7 anti-CD19 IgG1 (m1) with this Fc substitution, EU index; copies: 2 + 2) heavy: not shown light: DIVMTQSPATLSLSPGERATLSCRSSKSLQNVNGNTYLYWFQQKPGQSPQLLIYRMSNLNSGVPDRFSGSGSGTEFTLTISSLEPEDFAVYYCMQHLEYPITFGAGTKLEIKRTVAAPSVFIFPPSDEQLKSGTASVVCLLNNFYPREAKVQWKVDNALQSGNSQESVTEQDSKDSTYSLSSTLTLSKADYEKHKVYACEVTHQGLSSPVTKSFNRGEC
0.729 fold | 2010 nM |  |  | 0.853 fold | 1010 nM |  |  |  |  |  | 1.74 fold |  | 0.711 fold |  | 0.401 fold |  | 0.622 fold |  |  | S239Q (antibody, human IgG1, kappa, HuAM4G7 anti-CD19 IgG1 (m1) with this Fc substitution, EU index; copies: 2 + 2) heavy: not shown light: DIVMTQSPATLSLSPGERATLSCRSSKSLQNVNGNTYLYWFQQKPGQSPQLLIYRMSNLNSGVPDRFSGSGSGTEFTLTISSLEPEDFAVYYCMQHLEYPITFGAGTKLEIKRTVAAPSVFIFPPSDEQLKSGTASVVCLLNNFYPREAKVQWKVDNALQSGNSQESVTEQDSKDSTYSLSSTLTLSKADYEKHKVYACEVTHQGLSSPVTKSFNRGEC
